Measured values: article PMC5824709, “Metabolite profiling with HPLC-ICP-MS as a tool for in vivo characterization of imaging probes” (EJNMMI Radiopharmacy and Chemistry, 2018)
Where a SMILES comes first, the peptide text is derived from it. Bridges are numbered along the chain shown (N, C = ends). [ ]: non-standard residue; d: D form. The star is where a group is joined. DOTA(p-xylylenediamine) = O=C(O)CN1CCN(CC(=O)O)CCN(CC(=O)NCc2ccc(CN*)cc2)CCN(CC(=O)O)CC1; DOTA = O=C(O)CN1CCN(CC(=O)O)CCN(CC(=O)*)CCN(CC(=O)O)CC1; Tyr(3-Cl) = N[C@@H](Cc1ccc(O)c(Cl)c1)C(=O)O; Hyp = O=C(O)[C@@H]1C[C@@H](O)CN1

Legend:
[1] = Plasma pharmacokinetics and metabolite profiling by reverse phase HPLC-ICP-MS after i.v. injection; format: in vivo; settings: rats; for metabolic behavior in plasma over time (degradation of intact probe): i.v., plasma 5-60 min post injection, C18 HPLC-ICP-MS chromatograms; for relative amount of metabolites with time post injection: plasma, C18 HPLC-ICP-MS, Ga-FBP18: metabolite group C (shortest retention times), In-FBP19: all metabolites
Description: (§1) An Agilent 8800 ICP-MSMS interfaced to an Agilent 1260 HPLC was used. 20% option gas (20% O2, 80% Ar) was added to pyrolyze any carbon deposits on the cones from the HPLC mobile phase while 40% O2 was used as cell gas when conducting reverse phase analysis. HPLC method 3: C18 column (Kromasil 5 μm C18, 250 × 4.60 mm), 0.8 mL/min, mobile phase A (water, 10 mM NaOAc), mobile phase B (90% acetonitrile, 10% 10 mM NaOAc), gradient: min. 0–2: 5% B; min 12: 50% B; min 13: 95% B; min 15: 95% B; min 16: 5% B; min 18: 5% B. HPLC method 4: size exclusion chromatography (SEC) Column (Phenomenex BioSep-SEC-s2000, 300 × 7.80 mm), 1 mL/min, mobile phase TBS, isocratic, 18 min. The SEC column was standardized using a protein marker kit (Sigma-Aldrich, P/N: MWGF1000). Ga(DOTA) and In(DOTA) were used to determine the limit of detection and limit of quantification, and to generate a calibration curve for quantification using RP-separation. Calibration standards of Ga(DOTA) and In(DOTA) ranging from 10 nM to 1 μM were prepared by serial dilution from stocks. 100 μL of each standard was analyzed by direct injection onto the reverse phase HPLC-ICP-MS (HPLC method 3), and the integrals of each metal-FBP peak were recorded. An aliquot of each calibration standard was then digested 1:1 with nitric acid and incubated overnight at 37 °C before being analyzed for its metal concentration by ICP-MS. These metal concentrations were plotted against the previously recorded integrals to generate the metal-FBP calibration plots (Additional file 1: Figure S1). Limits of detection and quantification were calculated using an established method (MacDougall & Crummett [1980]).
Ga-FBP17, Ga-FBP18, In-FBP15, In-FBP19 (50–150 nmol, with concentrations determined by direct inject ICP-MS) in 0.6 mL sterile PBS were injected either individually or as a mixture of Ga-FBP17/In-FBP15 or Ga-FBP18/In-FBP19 into anesthetized rats via cannulated femoral vein, followed by saline flush. Blood (0.2 mL) was drawn at time points 5, 10, 15, 30 and 60 min post injection via cannulated femoral artery into heparin-containing tubes. Tubes were centrifuged at 2000 g for 10 min to separate the plasma. Plasma was diluted 1:1 with chelex-treated TBS and 100 μL of sample was injected onto the HPLC-ICP-MSMS, scanning for Ga and In at m/z = 69 and 115, respectively. Peaks were integrated and measured against a standard calibration curve.

[2] = Size exclusion chromatography HPLC-ICP-MS of plasma samples to detect transchelation to plasma proteins; format: in vivo; settings: rats, i.v., SEC HPLC-ICP-MS (BioSep-SEC-s2000, TBS), compared with pure Ga-/In-transferrin standard
Description: Ga and In transferrin complexes were synthesized using a 1.3 equivalent excess of protein and purification with Zeba™ Spin Desalting Columns (ThermoFisher Scientific), to remove unchelated Ga and In. TBS buffer was prepared by mixing 150 mM NaCl, 50 mM Tris and 5 mM NaHCO3 followed by stirring over chelex overnight and subsequent filtration.
as §1, with “The SEC column was standardized using a protein marker kit (Sigma-Aldrich, P/N: MWGF1000).” left out, “Calibration standards of Ga(DOTA) and In(DOTA) ranging from 10 nM to 1 μM were prepared by serial dilution from stocks.” left out
Ga-FBP17, Ga-FBP18, In-FBP15, In-FBP19 (50–150 nmol, with concentrations determined by direct inject ICP-MS) in 0.6 mL sterile PBS were injected either individually or as a mixture of Ga-FBP17/In-FBP15 or Ga-FBP18/In-FBP19 into anesthetized rats via cannulated femoral vein, followed by saline flush. […]

Row | Compound | half-life ([1]; rat, iv, i.v. via femoral vein, 50–150 nmol in PBS, plasma from blood drawn 5, 10, 15, 30, 60 min post injection, intact probe quantified by C18 HPLC-ICP-MS (m/z 69 Ga, 115 In), monoexponential clearance assumed, read-out: calculated half-life of the intact complex) | metabolic behavior in plasma over time (degradation of intact probe) [1] | transchelation to transferrin / high molecular weight species in plasma [2] | relative amount of metabolites with time post injection [1]
1 | CC[C@H](C)[C@H](NC(=O)[C@H](Cc1c[nH]cn1)NC(=O)[C@@H]1CSSC[C@H](NC(=O)[C@H](Cc2c[nH]cn2)NC(=O)[C@H](Cc2ccccc2)NC(=O)CN2CCN(CC(=O)O)CCN(CC(=O)O)CCN(CC(=O)O)CC2)C(=O)N2C[C@H](O)C[C@H]2C(=O)N[C@@H](Cc2ccc(O)c(Cl)c2)C(=O)N[C@@H](CC(=O)O)C(=O)N[C@@H](CC(C)C)C(=O)N1)C(=O)N[C@@H](CC(C)C)C(=O)NCc1ccc(CNC(=O)CN2CCN(CC(=O)O)CCN(CC(=O)O)CCN(CC(=O)O)CC2)cc1 [Ga-FBP17] ({DOTA}-FHC[Hyp][Tyr(3-Cl)]DLCHIL-{DOTA(p-xylylenediamine)}; disulfide 3-8) | 9 min | only minimal degradation over time | did not observe Ga-transferrin or other high molecular weight species | 
2 | CC[C@H](C)[C@H](NC(=O)[C@H](Cc1c[nH]cn1)NC(=O)[C@@H]1CSSC[C@H](NC(=O)[C@H](Cc2c[nH]cn2)NC(=O)[C@H](Cc2ccccc2)NC(=O)CN2CCN(CC(=O)O)CCN(CC(=O)O)CCN(CC(=O)O)CC2)C(=O)N2C[C@H](O)C[C@H]2C(=O)N[C@@H](Cc2ccc(O)c(Cl)c2)C(=O)N[C@@H](CC(=O)O)C(=O)N[C@@H](CC(C)C)C(=O)N1)C(=O)N[C@@H](CC(C)C)C(=O)NCc1ccc(CNC(=O)CN2CCN(CC(=O)O)CCN(CC(=O)O)CCN(CC(=O)O)CC2)cc1 [In-FBP15] ({DOTA}-FHC[Hyp][Tyr(3-Cl)]DLCHIL-{DOTA(p-xylylenediamine)}; disulfide 3-8) |  | only minimal degradation over time |  | 
3 | CC[C@H](C)[C@H](NC(=O)[C@H](Cc1c[nH]c2ccccc12)NC(=O)[C@@H]1CSSC[C@H](NC(=O)[C@@H](CCC(=O)O)NC(=O)[C@H](Cc2c[nH]c3ccccc23)NC(=O)CN2CCN(CC(=O)O)CCN(CC(=O)O)CCN(CC(=O)O)CC2)C(=O)N2C[C@H](O)C[C@H]2C(=O)N[C@@H](Cc2ccc(O)c(Cl)c2)C(=O)NCC(=O)N[C@@H](CC(C)C)C(=O)N1)C(=O)N[C@@H](CCC(N)=O)C(=O)NCc1ccc(CNC(=O)CN2CCN(CC(=O)O)CCN(CC(=O)O)CCN(CC(=O)O)CC2)cc1 [In-FBP19] ({DOTA}-W[dE]C[Hyp][Tyr(3-Cl)]GLCWIQ-{DOTA(p-xylylenediamine)}; disulfide 3-8) |  | rapid metabolism | did not identify In-transferrin in the plasma samples | roughly constant with time
4 | CC[C@H](C)[C@H](NC(=O)[C@H](Cc1c[nH]c2ccccc12)NC(=O)[C@@H]1CSSC[C@H](NC(=O)[C@@H](CCC(=O)O)NC(=O)[C@H](Cc2c[nH]c3ccccc23)NC(=O)CN2CCN(CC(=O)O)CCN(CC(=O)O)CCN(CC(=O)O)CC2)C(=O)N2C[C@H](O)C[C@H]2C(=O)N[C@@H](Cc2ccc(O)c(Cl)c2)C(=O)NCC(=O)N[C@@H](CC(C)C)C(=O)N1)C(=O)N[C@@H](CCC(N)=O)C(=O)NCc1ccc(CNC(=O)CN2CCN(CC(=O)O)CCN(CC(=O)O)CCN(CC(=O)O)CC2)cc1 [Ga-FBP18] ({DOTA}-W[dE]C[Hyp][Tyr(3-Cl)]GLCWIQ-{DOTA(p-xylylenediamine)}; disulfide 3-8) |  | rapid metabolism | identified Ga-transferrin as a metabolite | increased with time post injection
